Data on 28 molecules can be found in patent US20090028788A1 (WASHINGTON UNIVERSITY IN ST LOUIS, published 2009).

Bridges are numbered along the chain shown (N, C = ends). Primed or numbered codes have the meaning given here. Where no end group is shown, it is not given here. [ ]: non-standard residue; d: D form. The star is where a group is joined. Cypate = CC1(C)C(/C=C/C=C/C=C/C=C2/N(CCC(=O)*)c3ccc4ccccc4c3C2(C)C)=[N+](CCC(=O)O)c2ccc3ccccc3c21; DOTA = O=C(O)CN1CCN(CC(=O)O)CCN(CC(=O)*)CCN(CC(=O)O)CC1; DTPA = O=C(O)CN(CCN(CC(=O)O)CC(=O)O)CCN(CC(=O)O)CC(=O)*; Cypate′ = NIR carbocyanine dye; Ahx = NCCCCCC(=O)O; βAla = NCCC(=O)O

B1: Cypate-Cyclo(Cys-Arg-Gly-Asp-Cys)-NH2 (peptide)
peptide: CRGDC
HELM: PEPTIDE1{[CC1(C)C(/C=C/C=C/C=C/C=C2/N(CCC(=O)[*:2])c3ccc4ccccc4c3C2(C)C)=[N+](CCC(=O)O)c2ccc3ccccc3c21].C.R.G.D.C.[am]}$PEPTIDE1,PEPTIDE1,2:R3-6:R3$$$V2.0
SMILES: CC1(C)C(/C=C/C=C/C=C/C=C2/N(CCC(=O)N[C@H]3CSSC[C@@H](C(N)=O)NC(=O)[C@H](CC(=O)O)NC(=O)CNC(=O)[C@H](CCCNC(=N)N)NC3=O)c3ccc4ccccc4c3C2(C)C)=[N+](CCC(=O)O)c2ccc3ccccc3c21
notes: also called Cypate-cyclo(CRGDC)-NH2
B2: DTPA-Val-Arg-Gly-Asp-DPhe-Cyclo(Cys-Tyr-DTrp-Lys-Thr-Cys)-Thr-NH2 (peptide)
peptide: VRGDXCYXKTCT
HELM: PEPTIDE1{[O=C(O)CN(CCN(CC(=O)O)CC(=O)O)CCN(CC(=O)O)CC(=O)[*:2]].V.R.G.D.[dF].C.Y.[dW].K.T.C.T.[am]}$PEPTIDE1,PEPTIDE1,7:R3-12:R3$$$V2.0
SMILES: CC(C)[C@H](NC(=O)CN(CCN(CCN(CC(=O)O)CC(=O)O)CC(=O)O)CC(=O)O)C(=O)N[C@@H](CCCNC(=N)N)C(=O)NCC(=O)N[C@@H](CC(=O)O)C(=O)N[C@H](Cc1ccccc1)C(=O)N[C@H]1CSSC[C@@H](C(=O)N[C@H](C(N)=O)[C@@H](C)O)NC(=O)[C@H]([C@@H](C)O)NC(=O)[C@H](CCCCN)NC(=O)[C@@H](Cc2c[nH]c3ccccc23)NC(=O)[C@H](Cc2ccc(O)cc2)NC1=O
B3: Cyclo(DPhe-Val-Lys-Arg-Gly-Asp)-OH (peptide)
peptide: XVKRGD
HELM: PEPTIDE1{[dF].V.K.R.G.D}$PEPTIDE1,PEPTIDE1,1:R1-6:R2$$$V2.0
SMILES: CC(C)[C@@H]1NC(=O)[C@@H](Cc2ccccc2)NC(=O)[C@H](CC(=O)O)NC(=O)CNC(=O)[C@H](CCCNC(=N)N)NC(=O)[C@H](CCCCN)NC1=O
B4: H-B-Ala-Asp-Cys-Arg-Gly-Asp-Cys(Et)-Phe-Val-OH (peptide)
peptide: H-[βAla]DCRGDC(Et)FV-OH
SMILES: CCSC[C@H](NC(=O)[C@H](CC(=O)O)NC(=O)CNC(=O)[C@H](CCCNC(=N)N)NC(=O)[C@H](CS)NC(=O)[C@H](CC(=O)O)NC(=O)CCN)C(=O)N[C@@H](Cc1ccccc1)C(=O)N[C@H](C(=O)O)C(C)C
B5: Cyclo(Arg-Gly-Asp-DPhe-Asp)-Lys-NH2 (peptide)
peptide: RGD[dF]DK-NH2
modifications: lactam N-5; also: cyclo Arg1-Asp5: which Asp5 carboxyl (side chain or α) closes ring not given here
B6: DTPA-His-Asp-Cys(Et)-Arg-Gly-Asp-Cys(Et)-Phe-Lys-OH (peptide)
peptide: {DTPA}-HDC(Et)RGDC(Et)FK-OH
SMILES: CCSC[C@H](NC(=O)[C@H](CC(=O)O)NC(=O)CNC(=O)[C@H](CCCNC(=N)N)NC(=O)[C@H](CSCC)NC(=O)[C@H](CC(=O)O)NC(=O)[C@H](Cc1c[nH]cn1)NC(=O)CN(CCN(CCN(CC(=O)O)CC(=O)O)CC(=O)O)CC(=O)O)C(=O)N[C@@H](Cc1ccccc1)C(=O)N[C@@H](CCCCN)C(=O)O
B7: H-DPhe-Cyclo(Cys-Tyr-DTrp-Lys-Thr-Cys)-Thr-Val-Arg-Gly-Asp-DPhe-NH2 (peptide)
peptide: XCYXKTCTVRGDX
HELM: PEPTIDE1{[dF].C.Y.[dW].K.T.C.T.V.R.G.D.[dF].[am]}$PEPTIDE1,PEPTIDE1,2:R3-7:R3$$$V2.0
SMILES: CC(C)[C@H](NC(=O)[C@@H](NC(=O)[C@@H]1CSSC[C@H](NC(=O)[C@H](N)Cc2ccccc2)C(=O)N[C@@H](Cc2ccc(O)cc2)C(=O)N[C@H](Cc2c[nH]c3ccccc23)C(=O)N[C@@H](CCCCN)C(=O)N[C@@H]([C@@H](C)O)C(=O)N1)[C@@H](C)O)C(=O)N[C@@H](CCCNC(=N)N)C(=O)NCC(=O)N[C@@H](CC(=O)O)C(=O)N[C@H](Cc1ccccc1)C(N)=O
B8: DOTA-Arg-Gly-Asp-Ser-Pro-Lys(Cypate)-NH2 (peptide)
peptide: {DOTA}-RGDSPK(Cypate)-NH2
SMILES: CC1(C)C(/C=C/C=C/C=C/C=C2/N(CCC(=O)NCCCC[C@H](NC(=O)[C@@H]3CCCN3C(=O)[C@H](CO)NC(=O)[C@H](CC(=O)O)NC(=O)CNC(=O)[C@H](CCCNC(=N)N)NC(=O)CN3CCN(CC(=O)O)CCN(CC(=O)O)CCN(CC(=O)O)CC3)C(N)=O)c3ccc4ccccc4c3C2(C)C)=[N+](CCC(=O)O)c2ccc3ccccc3c21
B9: Cyclo(Arg-Gly-Asp-DPhe-Asp)-EAhx-Lys-OH (peptide)
peptide: RGD[dF]D[Ahx]K-OH
modifications: lactam N-5; also: cyclo Arg1-Asp5: which Asp5 carboxyl (side chain or α) closes ring not given here
B10: Cypate-[Cyclo(Cys-Arg-Gly-Asp-Ser-Cys)-NH2]1-(D-Glucosamine) (peptide)
peptide: CRGDSC-NH2
modifications: disulfide 1-6; not fully specified (N-terminus); printed as Cypate-[Cyclo(Cys-Arg-Gly-Asp-Ser-Cys)-NH2]1-(D-Glucosamine); also: D-glucosamine attached to cypate
B11: DTPA-DPhe-Cyclo(Cys-Tyr-DTrp-Lys-Thr-Cys)-Thr-Val-Arg-Gly-Asp-DPhe-NH2 (peptide)
peptide: XCYXKTCTVRGDX
HELM: PEPTIDE1{[O=C(O)CN(CCN(CC(=O)O)CC(=O)O)CCN(CC(=O)O)CC(=O)[*:2]].[dF].C.Y.[dW].K.T.C.T.V.R.G.D.[dF].[am]}$PEPTIDE1,PEPTIDE1,3:R3-8:R3$$$V2.0
SMILES: CC(C)[C@H](NC(=O)[C@@H](NC(=O)[C@@H]1CSSC[C@H](NC(=O)[C@@H](Cc2ccccc2)NC(=O)CN(CCN(CCN(CC(=O)O)CC(=O)O)CC(=O)O)CC(=O)O)C(=O)N[C@@H](Cc2ccc(O)cc2)C(=O)N[C@H](Cc2c[nH]c3ccccc23)C(=O)N[C@@H](CCCCN)C(=O)N[C@@H]([C@@H](C)O)C(=O)N1)[C@@H](C)O)C(=O)N[C@@H](CCCNC(=N)N)C(=O)NCC(=O)N[C@@H](CC(=O)O)C(=O)N[C@H](Cc1ccccc1)C(N)=O
B12: H-Val-Arg-Gly-Asp-DPhe-Cyclo(Cys-Tyr-DTrp-Lys-Thr-Cys)-Thr-NH2 (peptide)
peptide: VRGDXCYXKTCT
HELM: PEPTIDE1{V.R.G.D.[dF].C.Y.[dW].K.T.C.T.[am]}$PEPTIDE1,PEPTIDE1,6:R3-11:R3$$$V2.0
SMILES: CC(C)[C@H](N)C(=O)N[C@@H](CCCNC(=N)N)C(=O)NCC(=O)N[C@@H](CC(=O)O)C(=O)N[C@H](Cc1ccccc1)C(=O)N[C@H]1CSSC[C@@H](C(=O)N[C@H](C(N)=O)[C@@H](C)O)NC(=O)[C@H]([C@@H](C)O)NC(=O)[C@H](CCCCN)NC(=O)[C@@H](Cc2c[nH]c3ccccc23)NC(=O)[C@H](Cc2ccc(O)cc2)NC1=O
B13: H-DPhe-Cyclo(Cys-Tyr-DTrp-Lys-Thr-Cys)-Thr-Val-Arg-Gly-Asp-NH2 (peptide)
peptide: XCYXKTCTVRGD
HELM: PEPTIDE1{[dF].C.Y.[dW].K.T.C.T.V.R.G.D.[am]}$PEPTIDE1,PEPTIDE1,2:R3-7:R3$$$V2.0
SMILES: CC(C)[C@H](NC(=O)[C@@H](NC(=O)[C@@H]1CSSC[C@H](NC(=O)[C@H](N)Cc2ccccc2)C(=O)N[C@@H](Cc2ccc(O)cc2)C(=O)N[C@H](Cc2c[nH]c3ccccc23)C(=O)N[C@@H](CCCCN)C(=O)N[C@@H]([C@@H](C)O)C(=O)N1)[C@@H](C)O)C(=O)N[C@@H](CCCNC(=N)N)C(=O)NCC(=O)N[C@@H](CC(=O)O)C(N)=O

T1 sequence (P06756 31-1048, form in doubt, chain 1 of 2): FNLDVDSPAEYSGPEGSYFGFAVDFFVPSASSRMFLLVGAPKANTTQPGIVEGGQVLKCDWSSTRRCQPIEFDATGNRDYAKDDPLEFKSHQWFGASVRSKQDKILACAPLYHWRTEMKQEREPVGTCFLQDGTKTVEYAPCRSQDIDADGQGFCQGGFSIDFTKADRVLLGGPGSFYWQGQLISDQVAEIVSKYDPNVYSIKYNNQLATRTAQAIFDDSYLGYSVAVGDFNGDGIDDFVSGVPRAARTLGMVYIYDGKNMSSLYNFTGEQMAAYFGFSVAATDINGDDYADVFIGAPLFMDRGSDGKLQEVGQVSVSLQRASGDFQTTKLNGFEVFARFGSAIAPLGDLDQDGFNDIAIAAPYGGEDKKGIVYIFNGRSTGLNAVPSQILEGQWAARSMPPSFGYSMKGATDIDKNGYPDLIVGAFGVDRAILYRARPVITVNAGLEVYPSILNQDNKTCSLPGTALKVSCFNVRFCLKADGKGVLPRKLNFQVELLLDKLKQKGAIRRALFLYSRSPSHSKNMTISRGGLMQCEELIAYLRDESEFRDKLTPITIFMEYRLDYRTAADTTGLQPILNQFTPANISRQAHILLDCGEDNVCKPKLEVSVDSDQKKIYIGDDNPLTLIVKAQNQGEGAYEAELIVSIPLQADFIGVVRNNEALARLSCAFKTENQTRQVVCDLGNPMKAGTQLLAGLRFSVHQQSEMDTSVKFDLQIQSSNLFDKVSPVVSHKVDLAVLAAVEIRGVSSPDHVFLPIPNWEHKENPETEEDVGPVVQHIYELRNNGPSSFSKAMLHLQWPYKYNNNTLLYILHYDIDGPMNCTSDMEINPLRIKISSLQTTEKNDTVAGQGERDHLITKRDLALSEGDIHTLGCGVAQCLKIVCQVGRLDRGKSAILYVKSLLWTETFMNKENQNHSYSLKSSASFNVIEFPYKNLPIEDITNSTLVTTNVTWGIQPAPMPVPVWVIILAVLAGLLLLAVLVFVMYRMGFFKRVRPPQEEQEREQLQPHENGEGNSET
T1 sequence (P05106 27-788, form in doubt, chain 2 of 2): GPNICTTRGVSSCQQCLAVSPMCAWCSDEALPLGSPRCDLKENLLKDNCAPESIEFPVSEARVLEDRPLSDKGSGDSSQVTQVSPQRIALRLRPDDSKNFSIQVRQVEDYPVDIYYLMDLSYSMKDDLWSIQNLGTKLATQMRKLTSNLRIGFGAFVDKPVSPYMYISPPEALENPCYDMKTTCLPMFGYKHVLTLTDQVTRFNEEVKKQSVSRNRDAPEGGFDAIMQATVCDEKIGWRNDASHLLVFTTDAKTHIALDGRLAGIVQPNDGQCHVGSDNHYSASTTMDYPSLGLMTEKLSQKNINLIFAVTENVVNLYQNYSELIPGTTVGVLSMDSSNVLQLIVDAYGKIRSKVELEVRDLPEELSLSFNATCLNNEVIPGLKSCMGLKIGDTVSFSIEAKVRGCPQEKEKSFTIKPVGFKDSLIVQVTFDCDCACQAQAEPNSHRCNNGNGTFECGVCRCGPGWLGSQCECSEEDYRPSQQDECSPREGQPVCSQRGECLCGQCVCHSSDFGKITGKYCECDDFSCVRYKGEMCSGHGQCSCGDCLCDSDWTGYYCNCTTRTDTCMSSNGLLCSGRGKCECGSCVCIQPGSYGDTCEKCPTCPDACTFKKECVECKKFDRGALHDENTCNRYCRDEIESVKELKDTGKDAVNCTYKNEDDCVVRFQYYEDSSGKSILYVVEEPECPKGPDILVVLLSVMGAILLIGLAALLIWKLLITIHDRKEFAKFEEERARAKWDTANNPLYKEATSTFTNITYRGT

The first assay has as its target T1, purified human αvβ3 integrin protein (human, UniProt P06756 31-1048; P05106 27-788).
T1 construct: Bought heterodimer; also called ABI; purified αvβ3 integrin
The experiment in a line: competition with 125I-echistatin on purified human αvβ3 integrin, filter plate.
Description: (§1) The binding affinities were measured based on the competitive binding between purified αᵥβ₃ integrin (ABI) and peptide ligands.
(§2) Receptor binding assays were performed by using purified human αᵥβ₃ integrin protein from Chemicon International, Inc. (Temecula, Calif.). Assays were carried out using the Millipore Duropore membrane 96-well plates and the Millipore MultiScreen system (Bedford, Mass.). […] The concentration range of ligand was between 0.01 μM and 100 μM. The mixtures were incubated for 2 h at room temperature, the ABI was then filtered by centrifugation at 1500 g and washed three times with 0.20 mL of ice-cold binding buffer. The filters containing radioactivity bound ABI were removed using a punch apparatus and counted using a Packard Cobra II Auto-gamma counter (Meriden, Conn.). […] The 50% inhibitory concentrations (IC₅₀) were calculated by nonlinear regression analysis by use of the GraphPad Prism 4 computer fitting program (GraphPad Software, Inc., San Diego, Calif.).
For the molecule B1, the IC50 was found to be 4.6 µM.

For another assay, the target named is T1, purified human αvβ3 integrin protein. Described as above. This is another data set of the same source.
Description: as §1, §2
Turning to B2, the IC50 is 0.584 µM. That is a sub-micromolar value.
Take {Cypate′}-[βAla]RGD[Ahx]RGD[Ahx]RGDSPK-OH [Cypate-BAla-Arg-Gly-Asp-EAhx-Arg-Gly-Asp-EAhx-Arg-Gly-Asp-Ser-Pro-Lys-OH]: the IC50 is 0.0656 µM. This IC50 lies about 8.9-fold lower than the previous one.
On the same count and under the same terms, next, B3: 1.89 µM.
{Cypate(3)}-GRDSPK-OH [Cypate(3)-Gly-Arg-Asp-Ser-Pro-Lys-OH] had an IC50 of 2670 µM.
On the same count and under the same terms, for B4 the value was 0.329 µM; for B5, 1.74 µM.
On to B6, for which the 50% inhibitory concentration (IC50) worked out at 0.712 µM.
Still for that read-out and setting: next, B7: 0.357 µM; {DOTA}-GRDSPK-OH (also called DOTA-GRD) [DOTA-Gly-Arg-Asp-Ser-Pro-Lys-OH]: 350 µM; {DTPA}-[dF]CY[dW]KTCTVRGD-NH2 (disulfide 2-7) [DTPA-DPhe-Cyclo(Cys-Tyr-DTrp-Lys-Thr-Cys)-Thr-Val-Arg-Gly-Asp-NH2]: 1.11 µM.
{DTPA}-GRDSPK-OH [DTPA-Gly-Arg-Asp-Ser-Pro-Lys-OH] returned an IC50 of 0.849 µM.
In the case of B8, the IC50 worked out at 0.722 µM. The IC50 values of the last two molecules are within 1.5-fold of each other.
The same measure, in the same setting: next, {Cypate′}-VRGD[dF]CY[dW]KTCT-OH (disulfide 6-11) [Cypate-Val-Arg-Gly-Asp-DPhe-Cyclo(Cys-Tyr-DTrp-Lys-Thr-Cys)-Thr-OH]: 325 µM.
In turn, B9 had an IC50 of 1.94 µM.
In turn, {Cypate′}-[βAla]CRGDC[dF]V-NH2 (disulfide 2-6) [Cypate-BAla-Cyclo(Cys-Arg-Gly-Asp-Cys)-DPhe-Val-NH2] returned a half-maximal inhibitory concentration (IC50) of 0.000977 µM. Against the preceding molecule, the IC50 is about 2000-fold lower.
On the same count and under the same terms, for B10 the value was 0.275 µM.
{Cypate(2)}-GRDSPK-OH [Cypate(2)-Gly-Arg-Asp-Ser-Pro-Lys-OH] registered an IC50 of 266 µM.
On the same count and under the same terms, next, H-RGDSPK(Cypate)-NH2 [H-Arg-Gly-Asp-Ser-Pro-Lys(Cypate)-NH2]: 1 µM.
With {Cypate′}-KRGD[dF][Ahx]-NH2 [Cypate-Lys-Arg-Gly-Asp-DPhe-EAhx-NH2], the IC50 stood at 3.02 µM.
Still for that read-out and setting: for Cypate-RGDS-NH2 (also: cypate also carries one D-glucosamine) [Cypate(Arg-Gly-Asp-Ser-NH2)1-(D-Glucosamine)] the value was 1.94 µM; for {DTPA}-GRGDSPK-OH [DTPA-Gly-Arg-Gly-Asp-Ser-Pro-Lys-OH], 0.353 µM; for B11, 0.945 µM.
The molecule {Cypate′}-[dF]CY[dW]KTCTVRGD-NH2 (disulfide 2-7) [Cypate-DPhe-Cyclo(Cys-Tyr-DTrp-Lys-Thr-Cys)-Thr-Val-Arg-Gly-Asp-NH2] displayed a half-inhibitory concentration (IC50) of 4.42 µM.
Still for that read-out and setting: next, H-HDRGDCFK-OH [H-His-Asp-Arg-Gly-Asp-Cys-Phe-Lys-OH]: 0.411 µM; B12: 1.68 µM; {DOTA}-RGDSPK-OH [DOTA-Arg-Gly-Asp-Ser-Pro-Lys-OH]: 0.694 µM.
The same measure, in the same setting: for B13 the value was 0.722 µM.
